Measurements published in article PMC2632905.
Like-named read-outs stand apart in the source and are kept apart here.

T1: Cdc13(DBD) (Saccharomyces cerevisiae, UniProt P32797 497-694)
T1 sequence: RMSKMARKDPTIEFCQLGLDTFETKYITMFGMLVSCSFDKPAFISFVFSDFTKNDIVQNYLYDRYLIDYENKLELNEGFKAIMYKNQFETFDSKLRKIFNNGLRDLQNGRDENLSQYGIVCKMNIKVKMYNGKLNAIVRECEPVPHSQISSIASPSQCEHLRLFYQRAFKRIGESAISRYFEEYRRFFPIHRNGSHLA

T2: Cdc13p full-length (Saccharomyces cerevisiae, UniProt P32797 1-924)
T2 sequence: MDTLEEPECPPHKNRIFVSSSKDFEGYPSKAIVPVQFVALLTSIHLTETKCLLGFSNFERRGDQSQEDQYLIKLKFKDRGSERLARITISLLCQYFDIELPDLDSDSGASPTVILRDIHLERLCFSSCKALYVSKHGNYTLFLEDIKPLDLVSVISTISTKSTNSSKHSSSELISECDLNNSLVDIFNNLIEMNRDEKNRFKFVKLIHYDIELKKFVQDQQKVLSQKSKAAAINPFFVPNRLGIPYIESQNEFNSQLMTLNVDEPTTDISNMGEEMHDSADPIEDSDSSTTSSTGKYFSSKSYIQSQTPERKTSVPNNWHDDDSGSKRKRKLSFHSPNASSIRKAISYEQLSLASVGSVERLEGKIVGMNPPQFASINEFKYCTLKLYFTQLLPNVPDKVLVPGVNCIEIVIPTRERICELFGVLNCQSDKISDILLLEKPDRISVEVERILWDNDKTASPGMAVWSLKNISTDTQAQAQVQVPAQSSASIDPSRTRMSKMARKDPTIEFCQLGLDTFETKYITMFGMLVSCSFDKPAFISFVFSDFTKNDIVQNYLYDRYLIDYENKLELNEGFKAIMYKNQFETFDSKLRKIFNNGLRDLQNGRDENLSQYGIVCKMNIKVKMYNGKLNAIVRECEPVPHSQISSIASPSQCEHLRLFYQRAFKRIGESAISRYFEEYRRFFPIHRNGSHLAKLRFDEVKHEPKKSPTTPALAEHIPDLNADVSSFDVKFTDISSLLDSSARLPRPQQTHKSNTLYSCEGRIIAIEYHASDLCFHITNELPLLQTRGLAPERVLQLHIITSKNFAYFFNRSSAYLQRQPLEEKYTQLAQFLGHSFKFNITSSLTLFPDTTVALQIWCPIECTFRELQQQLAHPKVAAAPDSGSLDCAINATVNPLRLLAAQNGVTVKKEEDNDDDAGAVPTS

B1: TEL*-TGTGGG (ssDNA)
DNA: GTGTCTGTCTGTGTGGG
B2: TEL (ssDNA)
DNA: GTGTGGGTGTG
B3: TEL*-a10 (ssDNA)
DNA: GTGTCTGTCTGAAAAAAAAAA
B4: TEL*-GTGGG (ssDNA)
DNA: GTGTCTGTCTGGTGGG
B5: TEL*-GG (ssDNA)
DNA: GTGTCTGTCTGGG
B6: TEL*-GGG (ssDNA)
DNA: GTGTCTGTCTGGGG
B7: TEL* (ssDNA)
DNA: GTGTCTGTCTG
B8: TEL*-GTGTGGG (ssDNA)
DNA: GTGTCTGTCTGGTGTGGG

Experiments:
[1] = molecular target: T1, Cdc13(DBD); assay: footprinting
[2] = molecular target: T2, Cdc13p full-length; assay: footprinting
[3] = molecular target: T2, Cdc13p full-length; assay: EMSA
[4] = molecular target: T1, Cdc13(DBD); assay: filter binding
[5] = molecular target: T1, Cdc13(DBD); assay: footprinting; remark: listed apart in the source
[6] = molecular target: T2, Cdc13p full-length; assay: footprinting; remark: listed apart in the source

Binder	Kd [3] [nM]	Kd [4] [nM]	also measured
B1			binding result [1]: binds; binding result [2]: binds
B2	0.43 ± 0.17	2.8 ± 0.6	
B3	7.4 ± 2.4	380 ± 57	
B4			binding result [5]: binds; binding result [6]: binds
B5	0.81 ± 0.03		
B6	2.2 ± 0.7	33 ± 5.7	
B7	11 ± 3.8	620 ± 120	
B8	0.81 ± 0.15		
